B1: RHOBTB1 (parent)
chain: TFGDHHKDRRFAYGRSDVVVLCFS

Variants of: B1
Assay: protein stability index of a GFP-peptide fusion (GPS, HEK-293T) (PSI 1-6); higher = more stable
Conditions: c terminus: a fixed tail appended
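Further: lentivirally expressed fusions sorted by FACS into six bins by GFP to DsRed ratio, PSI derived from sequencing read proportions per bin multiplied by bin number.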

Protein stability index, by site and new letter:
R9: D 3.4; G 2.82; Q 3.83; T 1.42; L 2.66; P 3; V 3.55; S 1.86
R15: T 2.11; N 1.84; Y 3.25; K 2.27; S 2.34; E 1.75; Q 2.66; L 2.23; P 1.48; D 2.36; V 4.25; A 2.04; I 2.55
G14: Q 3.11; F 3.41; P 3.26; T 3.19; V 3.71; I 2.49; N 2.25; K 2.61; E 1.99; D 2.49; S 1.75; H 1.85; R 2.76
D4: H 1.51; P 2.46; E 3.4; Q 3.51; T 2.54; L 3.29; N 2.15; K 2.06; Y 3.19; W 3.1
D17: Q 2.43; R 1.79; F 1.51; T 2.67; C 3.12; M 3.13; W 2.78; N 2.23; I 3.11; P 3.44; K 1.63
R10: C 2.7; T 2.93; K 2.21; I 1.96; H 2.59; P 3.19; D 2.03; A 2.32; S 3.52; Q 2.27; G 4.76; E 1.47; M 1.76; V 2.19; N 3.35
V18: C 2.01; N 1.57; D 2.03; L 3.53; M 2.06; R 2.92; H 1.88; E 2.19; W 2.21; K 3.01; P 1.58; T 1.54; I 1.42; A 1.74; S 1.46; G 1.68; Q 1.72; Y 2.2
K7: Y 3.88; N 3.44; C 2.42; F 3.68; G 3.09; L 1.46; S 3.12; W 3.28; Q 2.38; T 3.37; A 1.53; D 2.76; M 3.46
S16: W 2.29; L 2.15; D 2.52; M 2.96; Y 1.23; H 2.91; E 2.07; K 2.43; I 1.57; Q 2.83; N 2.38; A 4.21; P 3.17
G3: R 1.52; N 1.98; I 2.42; K 1.74; E 2.98; V 3.29; P 2.48; W 2.33; F 1.39; A 1.83; D 2.11; S 2.45
V19: S 1.87; L 2.82; Q 1.52; K 1.92; N 2.28; P 1.69; C 1.26; I 2.14; H 2; A 2.23; G 1.61; E 1.88; R 1.89; T 2.68; M 2.17; D 2.93
A12: T 2.65; Q 2.33; C 2.93; H 3.79; G 1.57; Y 1.9; R 2.98; K 1.46; E 1.93; V 1.95; L 2.48; D 2.58; I 3.53
F11: S 1.13; N 2.49; P 1.89; W 2.28; L 1.98; D 1.78; E 1.49; H 2.37; K 1.35; Y 1.27; A 1.69; I 2.38
